In US20260167699A1 (Chugai, published 2026):

Biological target: T1, FcγRIIIa extracellular domain, C-terminal His tag (human, UniProt P08637 17-208)
T1 construct: extracellular domain; also called 3a
Test: SPR, binding activity relative to GpH7-A5/GpH7-B3/GpL16-k0 (=100)

T1 sequence (P08637 other isoform, or with tags, fused parts or gaps): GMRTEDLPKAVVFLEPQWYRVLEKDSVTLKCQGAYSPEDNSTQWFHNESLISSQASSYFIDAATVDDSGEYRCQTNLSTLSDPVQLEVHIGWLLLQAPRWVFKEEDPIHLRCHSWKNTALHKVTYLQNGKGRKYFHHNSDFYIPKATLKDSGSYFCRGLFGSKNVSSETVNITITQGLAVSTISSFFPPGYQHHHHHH

Binder	He/Con 3a [%]
GpH7-A5/GpH7-B3 variant S239_06M/GpL16-k0 (antibody, human IgG1, kappa, He Ab; copies: 1 + 1 + 2) heavy 1: not shown heavy 2: not shown light: DIVMTQSPLSLPVTPGEPASISCQASESLVHSNRNTYLHWYLQKPGQSPQLLIYKVSNRFSGVPDRFSGSGSGTDFTLKISRVEAEDVGVYYCSQNTHVPPTFGQGTKVEIERTVAAPSVFIFPPSDEQLKSGTASVVCLLNNFYPREAKVQWKVDNALQSGNSQESVTEQDSKDSTYSLSSTLTLSKADYEKHKVYACEVTHQGLSSPVTKSFNRGEC	73.9
GpH7-A5/GpH7-B3 variant S239_19Q/GpL16-k0 (antibody, human IgG1, kappa, He Ab; copies: 1 + 1 + 2) heavy 1: not shown heavy 2: not shown light: DIVMTQSPLSLPVTPGEPASISCQASESLVHSNRNTYLHWYLQKPGQSPQLLIYKVSNRFSGVPDRFSGSGSGTDFTLKISRVEAEDVGVYYCSQNTHVPPTFGQGTKVEIERTVAAPSVFIFPPSDEQLKSGTASVVCLLNNFYPREAKVQWKVDNALQSGNSQESVTEQDSKDSTYSLSSTLTLSKADYEKHKVYACEVTHQGLSSPVTKSFNRGEC	53.8
GpH7-A5/GpH7-B3 variant S298_03V/GpL16-k0 (antibody, human IgG1, kappa, He Ab; copies: 1 + 1 + 2) heavy 1: not shown heavy 2: not shown light: DIVMTQSPLSLPVTPGEPASISCQASESLVHSNRNTYLHWYLQKPGQSPQLLIYKVSNRFSGVPDRFSGSGSGTDFTLKISRVEAEDVGVYYCSQNTHVPPTFGQGTKVEIERTVAAPSVFIFPPSDEQLKSGTASVVCLLNNFYPREAKVQWKVDNALQSGNSQESVTEQDSKDSTYSLSSTLTLSKADYEKHKVYACEVTHQGLSSPVTKSFNRGEC	103
GpH7-A5/GpH7-B3 variant S239_14T/GpL16-k0 (antibody, human IgG1, kappa, He Ab; copies: 1 + 1 + 2) heavy 1: not shown heavy 2: not shown light: DIVMTQSPLSLPVTPGEPASISCQASESLVHSNRNTYLHWYLQKPGQSPQLLIYKVSNRFSGVPDRFSGSGSGTDFTLKISRVEAEDVGVYYCSQNTHVPPTFGQGTKVEIERTVAAPSVFIFPPSDEQLKSGTASVVCLLNNFYPREAKVQWKVDNALQSGNSQESVTEQDSKDSTYSLSSTLTLSKADYEKHKVYACEVTHQGLSSPVTKSFNRGEC	93
GpH7-A5/GpH7-B3 variant S267_18N/GpL16-k0 (antibody, human IgG1, kappa, He Ab; copies: 1 + 1 + 2) heavy 1: not shown heavy 2: not shown light: DIVMTQSPLSLPVTPGEPASISCQASESLVHSNRNTYLHWYLQKPGQSPQLLIYKVSNRFSGVPDRFSGSGSGTDFTLKISRVEAEDVGVYYCSQNTHVPPTFGQGTKVEIERTVAAPSVFIFPPSDEQLKSGTASVVCLLNNFYPREAKVQWKVDNALQSGNSQESVTEQDSKDSTYSLSSTLTLSKADYEKHKVYACEVTHQGLSSPVTKSFNRGEC	52
GpH7-A5/GpH7-B3 variant S298_02A/GpL16-k0 (antibody, human IgG1, kappa, He Ab; copies: 1 + 1 + 2) heavy 1: not shown heavy 2: not shown light: DIVMTQSPLSLPVTPGEPASISCQASESLVHSNRNTYLHWYLQKPGQSPQLLIYKVSNRFSGVPDRFSGSGSGTDFTLKISRVEAEDVGVYYCSQNTHVPPTFGQGTKVEIERTVAAPSVFIFPPSDEQLKSGTASVVCLLNNFYPREAKVQWKVDNALQSGNSQESVTEQDSKDSTYSLSSTLTLSKADYEKHKVYACEVTHQGLSSPVTKSFNRGEC	151
GpH7-A5/GpH7-B3 variant S298_04F/GpL16-k0 (antibody, human IgG1, kappa, He Ab; copies: 1 + 1 + 2) heavy 1: not shown heavy 2: not shown light: DIVMTQSPLSLPVTPGEPASISCQASESLVHSNRNTYLHWYLQKPGQSPQLLIYKVSNRFSGVPDRFSGSGSGTDFTLKISRVEAEDVGVYYCSQNTHVPPTFGQGTKVEIERTVAAPSVFIFPPSDEQLKSGTASVVCLLNNFYPREAKVQWKVDNALQSGNSQESVTEQDSKDSTYSLSSTLTLSKADYEKHKVYACEVTHQGLSSPVTKSFNRGEC	77.6
GpH7-A5/GpH7-B3 variant S298_06M/GpL16-k0 (antibody, human IgG1, kappa, He Ab; copies: 1 + 1 + 2) heavy 1: not shown heavy 2: not shown light: DIVMTQSPLSLPVTPGEPASISCQASESLVHSNRNTYLHWYLQKPGQSPQLLIYKVSNRFSGVPDRFSGSGSGTDFTLKISRVEAEDVGVYYCSQNTHVPPTFGQGTKVEIERTVAAPSVFIFPPSDEQLKSGTASVVCLLNNFYPREAKVQWKVDNALQSGNSQESVTEQDSKDSTYSLSSTLTLSKADYEKHKVYACEVTHQGLSSPVTKSFNRGEC	87.2
GpH7-A5/GpH7-B3 variant S239_09D/GpL16-k0 (antibody, human IgG1, kappa, He Ab; copies: 1 + 1 + 2) heavy 1: not shown heavy 2: not shown light: DIVMTQSPLSLPVTPGEPASISCQASESLVHSNRNTYLHWYLQKPGQSPQLLIYKVSNRFSGVPDRFSGSGSGTDFTLKISRVEAEDVGVYYCSQNTHVPPTFGQGTKVEIERTVAAPSVFIFPPSDEQLKSGTASVVCLLNNFYPREAKVQWKVDNALQSGNSQESVTEQDSKDSTYSLSSTLTLSKADYEKHKVYACEVTHQGLSSPVTKSFNRGEC	156
GpH7-A5/GpH7-B3 variant S267_01G/GpL16-k0 (antibody, human IgG1, kappa, He Ab; copies: 1 + 1 + 2) heavy 1: not shown heavy 2: not shown light: DIVMTQSPLSLPVTPGEPASISCQASESLVHSNRNTYLHWYLQKPGQSPQLLIYKVSNRFSGVPDRFSGSGSGTDFTLKISRVEAEDVGVYYCSQNTHVPPTFGQGTKVEIERTVAAPSVFIFPPSDEQLKSGTASVVCLLNNFYPREAKVQWKVDNALQSGNSQESVTEQDSKDSTYSLSSTLTLSKADYEKHKVYACEVTHQGLSSPVTKSFNRGEC	53.3
GpH7-A5/GpH7-B3 variant S267_09D/GpL16-k0 (antibody, human IgG1, kappa, He Ab; copies: 1 + 1 + 2) heavy 1: not shown heavy 2: not shown light: DIVMTQSPLSLPVTPGEPASISCQASESLVHSNRNTYLHWYLQKPGQSPQLLIYKVSNRFSGVPDRFSGSGSGTDFTLKISRVEAEDVGVYYCSQNTHVPPTFGQGTKVEIERTVAAPSVFIFPPSDEQLKSGTASVVCLLNNFYPREAKVQWKVDNALQSGNSQESVTEQDSKDSTYSLSSTLTLSKADYEKHKVYACEVTHQGLSSPVTKSFNRGEC	179
GpH7-A5/GpH7-B3 variant S298_07I/GpL16-k0 (antibody, human IgG1, kappa, He Ab; copies: 1 + 1 + 2) heavy 1: not shown heavy 2: not shown light: DIVMTQSPLSLPVTPGEPASISCQASESLVHSNRNTYLHWYLQKPGQSPQLLIYKVSNRFSGVPDRFSGSGSGTDFTLKISRVEAEDVGVYYCSQNTHVPPTFGQGTKVEIERTVAAPSVFIFPPSDEQLKSGTASVVCLLNNFYPREAKVQWKVDNALQSGNSQESVTEQDSKDSTYSLSSTLTLSKADYEKHKVYACEVTHQGLSSPVTKSFNRGEC	90.7
GpH7-A5/GpH7-B3 variant S239_10E/GpL16-k0 (antibody, human IgG1, kappa, He Ab; copies: 1 + 1 + 2) heavy 1: not shown heavy 2: not shown light: DIVMTQSPLSLPVTPGEPASISCQASESLVHSNRNTYLHWYLQKPGQSPQLLIYKVSNRFSGVPDRFSGSGSGTDFTLKISRVEAEDVGVYYCSQNTHVPPTFGQGTKVEIERTVAAPSVFIFPPSDEQLKSGTASVVCLLNNFYPREAKVQWKVDNALQSGNSQESVTEQDSKDSTYSLSSTLTLSKADYEKHKVYACEVTHQGLSSPVTKSFNRGEC	171
GpH7-A5/GpH7-B3 variant S267_19Q/GpL16-k0 (antibody, human IgG1, kappa, He Ab; copies: 1 + 1 + 2) heavy 1: not shown heavy 2: not shown light: DIVMTQSPLSLPVTPGEPASISCQASESLVHSNRNTYLHWYLQKPGQSPQLLIYKVSNRFSGVPDRFSGSGSGTDFTLKISRVEAEDVGVYYCSQNTHVPPTFGQGTKVEIERTVAAPSVFIFPPSDEQLKSGTASVVCLLNNFYPREAKVQWKVDNALQSGNSQESVTEQDSKDSTYSLSSTLTLSKADYEKHKVYACEVTHQGLSSPVTKSFNRGEC	64.3
GpH7-A5/GpH7-B3 variant S267_02A/GpL16-k0 (antibody, human IgG1, kappa, He Ab; copies: 1 + 1 + 2) heavy 1: not shown heavy 2: not shown light: DIVMTQSPLSLPVTPGEPASISCQASESLVHSNRNTYLHWYLQKPGQSPQLLIYKVSNRFSGVPDRFSGSGSGTDFTLKISRVEAEDVGVYYCSQNTHVPPTFGQGTKVEIERTVAAPSVFIFPPSDEQLKSGTASVVCLLNNFYPREAKVQWKVDNALQSGNSQESVTEQDSKDSTYSLSSTLTLSKADYEKHKVYACEVTHQGLSSPVTKSFNRGEC	149
GpH7-A5/GpH7-B3 variant S298_01G/GpL16-k0 (antibody, human IgG1, kappa, He Ab; copies: 1 + 1 + 2) heavy 1: not shown heavy 2: not shown light: DIVMTQSPLSLPVTPGEPASISCQASESLVHSNRNTYLHWYLQKPGQSPQLLIYKVSNRFSGVPDRFSGSGSGTDFTLKISRVEAEDVGVYYCSQNTHVPPTFGQGTKVEIERTVAAPSVFIFPPSDEQLKSGTASVVCLLNNFYPREAKVQWKVDNALQSGNSQESVTEQDSKDSTYSLSSTLTLSKADYEKHKVYACEVTHQGLSSPVTKSFNRGEC	74.9
GpH7-A5/GpH7-B3 variant S239_18N/GpL16-k0 (antibody, human IgG1, kappa, He Ab; copies: 1 + 1 + 2) heavy 1: not shown heavy 2: not shown light: DIVMTQSPLSLPVTPGEPASISCQASESLVHSNRNTYLHWYLQKPGQSPQLLIYKVSNRFSGVPDRFSGSGSGTDFTLKISRVEAEDVGVYYCSQNTHVPPTFGQGTKVEIERTVAAPSVFIFPPSDEQLKSGTASVVCLLNNFYPREAKVQWKVDNALQSGNSQESVTEQDSKDSTYSLSSTLTLSKADYEKHKVYACEVTHQGLSSPVTKSFNRGEC	104
GpH7-A5/GpH7-B3 variant S239_07I/GpL16-k0 (antibody, human IgG1, kappa, He Ab; copies: 1 + 1 + 2) heavy 1: not shown heavy 2: not shown light: DIVMTQSPLSLPVTPGEPASISCQASESLVHSNRNTYLHWYLQKPGQSPQLLIYKVSNRFSGVPDRFSGSGSGTDFTLKISRVEAEDVGVYYCSQNTHVPPTFGQGTKVEIERTVAAPSVFIFPPSDEQLKSGTASVVCLLNNFYPREAKVQWKVDNALQSGNSQESVTEQDSKDSTYSLSSTLTLSKADYEKHKVYACEVTHQGLSSPVTKSFNRGEC	75
GpH7-A5/GpH7-B3 variant S298_08L/GpL16-k0 (antibody, human IgG1, kappa, He Ab; copies: 1 + 1 + 2) heavy 1: not shown heavy 2: not shown light: DIVMTQSPLSLPVTPGEPASISCQASESLVHSNRNTYLHWYLQKPGQSPQLLIYKVSNRFSGVPDRFSGSGSGTDFTLKISRVEAEDVGVYYCSQNTHVPPTFGQGTKVEIERTVAAPSVFIFPPSDEQLKSGTASVVCLLNNFYPREAKVQWKVDNALQSGNSQESVTEQDSKDSTYSLSSTLTLSKADYEKHKVYACEVTHQGLSSPVTKSFNRGEC	69.2
GpH7-A5/GpH7-B3 variant S239_08L/GpL16-k0 (antibody, human IgG1, kappa, He Ab; copies: 1 + 1 + 2) heavy 1: not shown heavy 2: not shown light: DIVMTQSPLSLPVTPGEPASISCQASESLVHSNRNTYLHWYLQKPGQSPQLLIYKVSNRFSGVPDRFSGSGSGTDFTLKISRVEAEDVGVYYCSQNTHVPPTFGQGTKVEIERTVAAPSVFIFPPSDEQLKSGTASVVCLLNNFYPREAKVQWKVDNALQSGNSQESVTEQDSKDSTYSLSSTLTLSKADYEKHKVYACEVTHQGLSSPVTKSFNRGEC	90
GpH7-A5/GpH7-B3 variant S267_06M/GpL16-k0 (antibody, human IgG1, kappa, He Ab; copies: 1 + 1 + 2) heavy 1: not shown heavy 2: not shown light: DIVMTQSPLSLPVTPGEPASISCQASESLVHSNRNTYLHWYLQKPGQSPQLLIYKVSNRFSGVPDRFSGSGSGTDFTLKISRVEAEDVGVYYCSQNTHVPPTFGQGTKVEIERTVAAPSVFIFPPSDEQLKSGTASVVCLLNNFYPREAKVQWKVDNALQSGNSQESVTEQDSKDSTYSLSSTLTLSKADYEKHKVYACEVTHQGLSSPVTKSFNRGEC	65.3
GpH7-A5/GpH7-B3 variant S267_10E/GpL16-k0 (antibody, human IgG1, kappa, He Ab; copies: 1 + 1 + 2) heavy 1: not shown heavy 2: not shown light: DIVMTQSPLSLPVTPGEPASISCQASESLVHSNRNTYLHWYLQKPGQSPQLLIYKVSNRFSGVPDRFSGSGSGTDFTLKISRVEAEDVGVYYCSQNTHVPPTFGQGTKVEIERTVAAPSVFIFPPSDEQLKSGTASVVCLLNNFYPREAKVQWKVDNALQSGNSQESVTEQDSKDSTYSLSSTLTLSKADYEKHKVYACEVTHQGLSSPVTKSFNRGEC	90.9
